Source: patent US20190015519A1, “MMP-SENSITIVE TAXANE PRODRUG” (Incanthera Ltd, priority 2015, published 2019)
Several values for one entry are separate records, joined by “and”; a condition that tells them apart may be missing. Equal values may be shown once. Entries after “also recorded” stand apart in the source; their conditions may differ.

Tests used:
[1] = ALL Taxol Compounds (1uM) (ALL Tissue Metabolism)
Experimental: Table printed on a drawing sheet, Fig. 11
Title: ALL Taxol Compounds (1uM) (ALL Tissue Metabolism)
Footnotes: Tumour (51-100%) / Liver (0-15%) / Tumour & Liver (26-50%) / Tumour (0-25%) / Liver (51-100%)
First reader's note: Cell hatching codes the classes given in the legend; all compounds tested at 1uM in tissue homogenates.

[2] = ALL Taxol Compounds (10uM) PC3 Vs Liver Vs HT1080 Metabolism
Experimental: Table printed on a drawing sheet, Fig. 8 (Cont.)
Title: ALL Taxol Compounds (10uM) PC3 Vs Liver Vs HT1080 Metabolism
(§1) Footnotes: [diagonal hatching] Tumour (51-100%) / Liver (0-15%) / [horizontal hatching] Tumour & Liver (26-50%) / [cross hatching] Tumour (0-25%) / Liver (51-100%)
First reader's note: Continuation of Fig. 8; the title prints 10uM while the head row prints 10mM, and cell hatching marks the classes given in the legend.

[3] = PK study (PC3) ICT3205 - 15mg/kg (5mg/kg taxol) IP Almost undetectable concentrations of ICT3205 in tumour
Experimental: Table printed on a drawing sheet, Fig. 21
Title: PK study (PC3) ICT3205 - 15mg/kg (5mg/kg taxol) IP Almost undetectable concentrations of ICT3205 in tumour
Footnotes: Tumour AUC ↑ x10-fold Tumour Cmax ↑ x10-fold } For ACTIVE Taxol / ALSO Tissue AUC ↓ Tissue Cmax ↓ x10-fold } For ACTIVE Taxol
The patent's description of the figure: FIG. 21 provides a table highlighting in greater detail the disparity of distribution between normal tissues and tumour tissues for paclitaxel alone, parent ICT3205 and paclitaxel release from the prodrug.
First reader's note: The ratio cells span the three analyte rows of each tissue and are repeated in each row; the first PC3 row is printed as 'ICT2305' (boxed) and has its own empty Cmax Ratio cell.

[4] = Top 3 Taxol Compounds (20uM) PC3 Vs LNCaP (x2) Vs PNT2 Cell-based assay
Experimental: Table printed on a drawing sheet, Fig. 9 (Cont.)
Title: Top 3 Taxol Compounds (20uM) PC3 Vs LNCaP (x2) Vs PNT2 Cell-based assay
Footnotes: [diagonal hatching] Tumour (51-100%) / Non-Tumour (0-15%) / [horizontal hatching] Tumour & Non-Tumour (26-50%) / [cross hatching] Tumour (0-25%) / Non-Tumour (51-100%)
First reader's note: Continuation of Fig. 9; cell shading (hatching) classifies the values by the legend, and all compounds were tested at 20uM in cell culture.

[5] = Incubation with PC3 tumour homogenate (tumour activation); assay type: in vitro ADME
From the text: A paclitaxel (Taxol) standard is shown in the top trace,
(§2) The relative importance of individual amino acids within the MT-MMP peptide recognition sequence has been investigated following extensive ex vivo metabolic studies. These studies employed tissue homogenates to assess activation of prodrug conjugates in tumour (PC-3) tissues and stability in normal tissues (liver kidney lung).

[6] = Systemic toxicity by mouse body weight; assay type: in vivo; conditions: mice
[7] = molecular target: MMP14 (Homo sapiens, UniProt P50281); experiment: Cleavage by recombinant MMP14 in vitro (HPLC traces, mass spectrometry); assay type: biochemical; conditions: over 18 h
[8] = Incubation with normal tissue homogenates (normal tissue stability); assay type: in vitro ADME
Experimental: Parent molecules are incubated with tissue homogenate and half lives calculated Green indicates acceptable whereas red is unacceptable.
as §2

[9] = system: prostate tumour-associated MT-MMPs; experiment: Incubation in tissue culture media containing prostate tumour cells; assay type: cell-based; conditions: incubation at 20 um in tissue culture media with cells; compared to other agents tested
[10] = Metabolism in LNCaP prostate cancer cell line; assay type: in vitro ADME
[11] = In vivo murine pharmacokinetic study monitoring paclitaxel release in tumour, tissues and plasma
From the text: The early peak drug concentrations associated with paclitaxel dosing are removed by administration of prodrug. A 10-fold increase in tumour concentration of paclitaxel is observed following administration as ICT3205.
FIG. 21 provides a table highlighting in greater detail the disparity of distribution between normal tissues and tumour tissues for paclitaxel alone, parent ICT3205 and paclitaxel release from the prodrug.

[12] = ALL Taxol Compounds (1uM) PC3 Vs Liver Vs HT1080 Metabolism
Experimental: Table printed on a drawing sheet, Fig. 7 (Cont.)
Title: ALL Taxol Compounds (1uM) PC3 Vs Liver Vs HT1080 Metabolism
as §1
First reader's note: Continuation of Fig. 7; cell hatching classifies the values per the legend, and the title states 1uM while the head row states 1mM.

[13] = system: PC3 xenografts; experiment: Anti-tumour efficacy study in PC3 xenografts; assay type: in vivo, mouse; conditions: PC3-bearing mice; single dose; ICT3205 20 mg/kg, paclitaxel 7 mg/kg (molar equivalent)
[14] = molecular target: MMP 15 (Homo sapiens, UniProt P51511); experiment: Cleavage by recombinant MMP15 in vitro (HPLC traces); assay type: biochemical; conditions: over 18 h
Sequence of MMP 15 (P51511 132-669): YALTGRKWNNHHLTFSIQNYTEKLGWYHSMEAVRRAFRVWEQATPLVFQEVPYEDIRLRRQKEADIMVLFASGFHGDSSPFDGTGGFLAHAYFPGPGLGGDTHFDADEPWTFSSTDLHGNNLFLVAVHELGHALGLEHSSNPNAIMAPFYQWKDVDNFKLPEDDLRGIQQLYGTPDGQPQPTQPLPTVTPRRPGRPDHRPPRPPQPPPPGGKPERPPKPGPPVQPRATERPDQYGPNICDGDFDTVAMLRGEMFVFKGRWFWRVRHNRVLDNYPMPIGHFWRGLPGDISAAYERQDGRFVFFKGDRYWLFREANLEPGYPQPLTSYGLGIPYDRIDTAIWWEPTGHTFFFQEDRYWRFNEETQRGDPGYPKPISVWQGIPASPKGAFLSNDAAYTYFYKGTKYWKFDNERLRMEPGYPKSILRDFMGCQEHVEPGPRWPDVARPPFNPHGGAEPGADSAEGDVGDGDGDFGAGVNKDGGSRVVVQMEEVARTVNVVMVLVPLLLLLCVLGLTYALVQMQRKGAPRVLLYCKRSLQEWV

Compound: CC(=O)O[C@H]1C(=O)[C@@]2(C)C([C@H](OC(=O)c3ccccc3)[C@]3(O)C[C@H](OC(=O)[C@H](OC(=O)OCc4ccc(NC(=O)[C@H](CC(C)C)NC(=O)[C@H](Cc5ccc(O)cc5)NC(=O)[C@H](CCc5ccccc5)NC(=O)CNC(=O)[C@H](CCCNC(N)=O)NC(=O)[C@H](CO)NC(=O)[C@H](CCCNC(=N)N)NC(=O)CCNC(=S)Nc5ccc6c(c5)C(=O)OC65c6ccc(O)cc6Oc6cc(O)ccc65)cc4)[C@@H](NC(=O)c4ccccc4)c4ccccc4)C(C)=C1C3(C)C)[C@]1(OC(C)=O)CO[C@@H]1C[C@@H]2O (some centres unmarked) [ICT3205]
- Tissue Homogenate Metabolism (1uM) | Kidney Stability (% loss) [1]: 4 % loss
- Tissue Homogenate Metabolism (1uM) | Kidney Taxol Release (% gain) [1]: 4 % gain
- Tissue Homogenate Metabolism (1uM) | Lung Stability (% loss) [1]: 19 % loss
- Tissue Homogenate Metabolism (1uM) | Lung Taxol Release (% gain) [1]: 12 % gain
- Tissue Homogenate Metabolism (10 µM) | HT1080 Stability (% loss) [2]: 48 % loss
- Tissue Homogenate Metabolism (10 µM) | HT1080 Taxol Release (% gain) [2]: 55 % gain
- Tissue Homogenate Metabolism (10 µM) | Liver Stability (% loss) [2]: 12 % loss
- Tissue Homogenate Metabolism (10 µM) | Liver Taxol Release (% gain) [2]: 21 % gain
- Tissue Homogenate Metabolism (10 µM) | PC3 Stability (% loss) [2]: 54 % loss
- Tissue Homogenate Metabolism (10 µM) | PC3 Taxol Release (% gain) [2]: 60 % gain
- Tmax [3]: 4 h and 2 h
- Cell Culture Metabolism (20uM) | LNCaP (2) Taxol Release (% gain) [4]: 81 % gain
- Cell Culture Metabolism (20uM) | LNCaP Stability (% loss) [4]: 100 % loss
- Cell Culture Metabolism (20uM) | LNCaP Taxol Release (% gain) [4]: 73 % gain
- Cell Culture Metabolism (20uM) | PC3 Stability (% loss) [4]: 84 % loss
- Cell Culture Metabolism (20uM) | PC3 Taxol Release (% gain) [4]: 49 % gain
- Cell Culture Metabolism (20uM) | PNT2 Stability (% loss) [4]: 21 % loss
- Cell Culture Metabolism (20uM) | PNT2 Taxol Release (% gain) [4]: 12 % gain
- metabolism (disappearance, activation) of conjugate in PC3 ([5]; PC3 prostate cancer cell line homogenate): disappearance; also recorded: metabolised equally quickly; also recorded: metabolised rapidly
- paclitaxel release in PC3 tumour ([5]; PC3 tumour homogenate): differential release of free paclitaxel; also recorded: appearance of paclitaxel
- toxicity and adverse systemic effects as indicated by mouse body weight [6]: no toxicity and no adverse systemic effects
- cleavage by recombinant MMP14 [7]: cleavage
- stability in kidney and liver homogenates ([8]; kidney and liver, over other molecules): marked increased stability
- appearance of paclitaxel in liver homogenate ([8]; liver homogenate): not in the liver
- conjugate stability in liver homogenate ([8]; liver homogenate): relative stability
- stability in normal tissue homogenates ([8]; liver, kidney, lung): stable; also recorded: long in vitro ‘half-life’ and stability
- cleavage by prostate tumour-associated MT-MMPs and release of paclitaxel [9]: superior cleavage
- metabolism of conjugate in LNCaP [10]: metabolised equally quickly
- levels of paclitaxel released from ICT3205 in heart ([11]; heart): < 500 nM
- AUC ratio of paclitaxel released from ICT3205 compared to paclitaxel administered alone, normal tissues ([11]; normal tissues, AUC in uM.h, ICT3205 20 mg/kg vs paclitaxel 7 mg/kg): 0.05-0.99
- Cmax ratio of paclitaxel released from ICT3205 vs paclitaxel alone, other tissues ([11]; other tissues, ICT3205 20 mg/kg vs paclitaxel 7 mg/kg): 0.02-0.19
- levels of paclitaxel released from ICT3205 in plasma ([11]; plasma): below detectable levels
- AUC ratio of paclitaxel released from ICT3205 compared to paclitaxel administered alone, tumour ([11]; tumour, AUC in uM.h, ICT3205 20 mg/kg vs paclitaxel 7 mg/kg): 16.2
- Cmax ratio of paclitaxel released from ICT3205 vs paclitaxel alone, tumour ([11]; tumour, ICT3205 20 mg/kg vs paclitaxel 7 mg/kg): 9.77
- increase in tumour concentration of paclitaxel following administration as ICT3205 ([11]; tumour, versus equimolar paclitaxel alone): 10 fold
- Tissue Homogenate Metabolism (1 µM) | HT1080 Stability (% loss) [12]: 60 % loss
- Tissue Homogenate Metabolism (1 µM) | HT1080 Taxol Release (% gain) [12]: 58 % gain
- Tissue Homogenate Metabolism (1 µM) | Liver Stability (% loss) [12]: 12 % loss
- Tissue Homogenate Metabolism (1 µM) | Liver Taxol Release (% gain) [12]: 19 % gain
- Tissue Homogenate Metabolism (1 µM) | PC3 Stability (% loss) [12]: 77 % loss
- Tissue Homogenate Metabolism (1 µM) | PC3 Taxol Release (% gain) [12]: 85 % gain
- anti-tumour effect (growth delay) [13]: highly significant growth delay; also recorded: superior anti-tumour effects
- cleavage by recombinant MMP 15 [14]: cleavage

Compound: CC(=O)O[C@H]1C(=O)[C@@]2(C)[C@H]([C@H](OC(=O)c3ccccc3)[C@]3(O)C[C@H](OC(=O)[C@H](O)[C@@H](NC(=O)c4ccccc4)c4ccccc4)C(C)=C1C3(C)C)[C@]1(OC(C)=O)CO[C@@H]1C[C@@H]2O [paclitaxel, Paclitaxel, reference compound]
- anti-tumour effect (growth delay) [13]: no significant anti-tumour effect; also recorded: no efficacy

Compound: MeO (PEG) [ICT3200]
- Tissue Homogenate Metabolism (1uM) | Kidney Stability (% loss) [1]: 32 % loss
- Tissue Homogenate Metabolism (1uM) | Kidney Taxol Release (% gain) [1]: 25 % gain
- Tissue Homogenate Metabolism (1uM) | Lung Stability (% loss) [1]: 64 % loss
- Tissue Homogenate Metabolism (1uM) | Lung Taxol Release (% gain) [1]: 31 % gain
- Tissue Homogenate Metabolism (10 µM) | HT1080 Stability (% loss) [2]: 61 % loss
- Tissue Homogenate Metabolism (10 µM) | HT1080 Taxol Release (% gain) [2]: 30 % gain
- Tissue Homogenate Metabolism (10 µM) | Liver Stability (% loss) [2]: 0 % loss
- Tissue Homogenate Metabolism (10 µM) | Liver Taxol Release (% gain) [2]: 8 % gain
- Tissue Homogenate Metabolism (10 µM) | PC3 Stability (% loss) [2]: 80 % loss
- Tissue Homogenate Metabolism (10 µM) | PC3 Taxol Release (% gain) [2]: 36 % gain
- Cell Culture Metabolism (20uM) | LNCaP (2) Stability (% loss) [4]: 62 % loss
- Cell Culture Metabolism (20uM) | LNCaP (2) Taxol Release (% gain) [4]: 51 % gain
- Cell Culture Metabolism (20uM) | LNCaP Stability (% loss) [4]: 61 % loss
- Cell Culture Metabolism (20uM) | LNCaP Taxol Release (% gain) [4]: 62 % gain
- Cell Culture Metabolism (20uM) | PC3 Stability (% loss) [4]: 89 % loss
- Cell Culture Metabolism (20uM) | PC3 Taxol Release (% gain) [4]: 49 % gain
- Cell Culture Metabolism (20uM) | PNT2 Stability (% loss) [4]: 60 % loss
- Cell Culture Metabolism (20uM) | PNT2 Taxol Release (% gain) [4]: 22 % gain
- Tissue Homogenate Metabolism (1 µM) | HT1080 Stability (% loss) [12]: 72 % loss
- Tissue Homogenate Metabolism (1 µM) | HT1080 Taxol Release (% gain) [12]: 29 % gain
- Tissue Homogenate Metabolism (1 µM) | Liver Stability (% loss) [12]: 5 % loss
- Tissue Homogenate Metabolism (1 µM) | Liver Taxol Release (% gain) [12]: 5 % gain
- Tissue Homogenate Metabolism (1 µM) | PC3 Stability (% loss) [12]: 82 % loss
- Tissue Homogenate Metabolism (1 µM) | PC3 Taxol Release (% gain) [12]: 36 % gain
